B1: library; numbered along this chain (parent)
chain: MATDAALRRLLRLHRTEIAVAVDSAFPLLHALADHDVVPEDKFQETLHLKEKEGCPQAFHALLSWLLTQDSTAILDFWRVLFKDYNLERYGRLQPILDSFPKDVDLSQPRKGRKPPAVPKALVPPPRLPTKRKASEEARAAAPAALTPRGTASPGSQLKAKPPKKPESSAEQQRLPLGNGIQTMSASVQRAVAMSSGDVPGARGAVEGILIQQVFESGGSKKCIQVGGEFYTPSKFEDSGSGKNKARSSSGPKPLVRAKGAQGAAPGGGEARLGQQGSVPAPLALPSDPQLHQKNEDECAVCRDGGELICCDGCPRAFHLACLSPPLREIPSGTWRCSSCLQATVQEVQPRAEEPRPQEPPVETPLPPGLRSAGEEVRGPPGEPLAGMDTTLVYKHLPAPPSAAPLPGLDSSALHPLLCVGPEGQQNLAPGARCGVCGDGTDVLRCTHCAAAFHWRCHFPAGTSRPGTGLRCRSCSGDVTPAPVEGVLAPSPARLAPGPAKDDTASHEPALHRDDLESLLSEHTFDGILQWAIQSMARPAAPFPS

Variants of: B1
Assay: AIRE transcriptional activation functional score (insulin promoter-GFP; nonsense median 0, synonymous median 1) (normalised score); higher = higher AIRE activity (more reporter activation)
Settings: with insulin promoter-GFP reporter in HEK293
Procedure: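 Deep mutational scan of full-length human AIRE (codon-optimized cDNA, DT-POPCode NNN libraries over three regions) integrated at a Bxb1 landing pad in HEK293 cells carrying an insulin core promoter-GFP reporter at a Flp-In site. Cells were sorted for the top 10% GFP about 14 days after transfection. Variant frequency log-ratios (select vs non-select, TileSeq) were rescaled so that the nonsense median is 0 and the synonymous median is 1, then averaged over biological replicates.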

AIRE transcriptional activation functional score, by site and new letter:
S220: Q -1.55; C 1.21; W -1.37; F 0.305; G 0.764; A 0.262; R 1.06; V 0.743; E 1.14; Y -0.203; D 0.488; M 1.16; P -0.127; I 0.449; L 1.04; T 0.905
S217: A 0.4; K 0.417; R 0.942; V 0.98; H 1.07; T 0.908; D 1.57; L 0.613; I 0.549; F 0.411; Y 0.669; G 1.1; W 0.119; Q 0.502; M 0.709; E 0.8; N 0.895; C 1.16; P 0.572
Q213: N 0.805; Y 1.23; T 0.965; S 0.639; V -0.393; W -1.06; R 0.637; P 0.531
G219: S 0.761; C 1.5; M 0.958; H 0.761; D 0.836; P 0.556; E 0.654; L 1.14; R 0.858; N 0.637; V 1.14; Q 0.0466; A 1.13; I 1.35; F 0.625; W 0.981; T 1.01; Y 1.14
K221: G 0.945; W 0.337; C 0.921; Y 0.0318; S 0.464; Q 0.621; P 0.766; A -0.576; R 0.95; L 0.328; M 1.02; V 0.663; H 0.705; D 0.706; N 0.995; E 1.1; I -0.82; F -0.0481
K222: P 0.845; W -0.0951; G 0.393; A 0.955; E 0.916; T 0.149; H 0.644; I 0.0162; R 1.05; F -0.315; Q 1.11; V 0.137; C -0.312; N 0.679; D 0.771; L 0.0335; S 0.847; M -0.00949; Y -1.15
Y231: I 0.701; F 1.05; P 0.54; K 0.204; Q 0.625; M 0.624; W 1.05; R 0.669; E 0.639; T 0.493; D 0.734; G 0.475; N 0.775; S 0.49; V 0.771; H 0.724; L 0.803; A 0.676; C 0.601
Q225: N 0.762; Y -0.259; A 0.99; H 0.951; R 0.916; P 0.572; K 1.23; V -0.115; S 0.993; L -0.23; W 0.582; T 0.688; M -0.00432; G 0.56; D 0.269; I 0.248; C -0.424; E 1.13; F -0.00208
G228: L -1.11; W -0.356; F 0.331; S 0.591; T 1.57; C 0.71; V 0.421; N 1.51; R 1.26; Y 0.381; E 0.668; I -0.341; D 1.05; P 0.904; H -2; K 0.799; A 0.509; Q -1.12
E216: L 1.42; C 0.558; Q 0.964; R -0.537; A 0.655; K 1.2; H 0.489; G 1.09; D 0.741; S 1.33; V 0.252; I -1.75; W 0.395; N 1.75
F230: V 0.617; H 0.48; M 0.801; C 0.611; R 0.603; W 0.97; Q 0.665; P 0.293; A 0.596; T 0.761; I 0.507; S 0.473; E 0.377; D 0.723; G 0.617; L 0.774; Y 0.502; K 0.376; N 0.425
T232: A 0.926; D 1.19; C 0.594
G218: Q -0.344; T 1.11; C 0.887; N 0.111; R 1.13; K 0.888; A 1.02; I 1.14; L 1.01; H 1.03; Y 0.677; D 0.885; E -0.051; M 1.01; P 0.651; F 0.259; S 0.817; W -0.332; V 1.1
G227: Y 0.111; F -0.195; L 0.445; K 0.245; W 0.742; R 0.425; P 0.459; Q 1.02; V 0.378; H 0.263; S 0.225; C 0.85; T -0.68; N 0.587; M -1.01; I -0.209; E 0.368; A 0.503
V226: S 0.403; Y 0.994; M 0.67; K 0.148; H 0.579; A 0.677; E 0.0129; L 1.08; W 1.21; I 0.848; T 0.799; R 0.531; F 0.889; D 0.724; C 0.347; P 1.09; G 0.814; N -0.139; Q 0.554
E229: Q 1.13; A -0.0287; N 0.433; Y -0.363; F 0.704; H 0.361; C 0.0314; D 0.886; G 1.15; I 0.102; V 0.158; P 0.679; K 0.571; W -0.162; T -0.101; M 0.122; S 0.662; L 0.0432; R 0.148
I224: N 0.402; Q 0.197; C 0.709; V 0.58; T 0.559; P 0.419; E 1; H 0.512; K 0.822; R 0.498; D 0.864; A 0.495; W 1.11; M 1.07; F 0.959; Y 0.84; G 0.296; L 0.689; S 0.599
C223: P 0.562; L 0.844; R 0.797; H 0.784; I 0.0416; Y 0.577; A 0.737; M 0.937; V 0.923; D 0.503; S 0.477; Q 0.474; F 0.324; N 0.407; T 1.15; K 0.604; G 0.803; E 0.793; W -0.0978
F215: H 0.814; G 0.391; L 0.751; W 0.878; M 0.136; R 0.351; C 0.382; P 0.715; V 0.289; T -0.146; Y 0.54; E 0.601; K -0.187; D 0.909; A 0.568; S 0.474; I 0.64
V214: M 0.284; Y 1.25; G 0.556; W 0.402; H 0.137; E 0.383; C 1.01; F 1.01; P 0.238; R 0.66; A 0.717; S 0.447; L 0.413; I 0.735

Source: the supplement of paper PMC12667976
